Data taken from patent publication US20240082304A1 (published 2024).

Biological target: T1, CT83 peptide on HLA-A2 (human)
T1 peptide: KLVELEHTL
Experiment: killing

B1: A2-CT83 TCR (TCR, V domains shown)
Valpha: GEDVEQSLFLSVREGDSSVINCTYTDSSSTYLYWYKQEPGAGLQLLTYIFSNMDMKQDQRLTVLLNKKDKHLSLRIADTQTGDSAIYFCAEKSGYSGAGSYQLTFGKGTKLSVIP
Vbeta: SAVISQKPSRDICQRGTSLTIQCQVDSQVTMMFWYRQQPGQSLTLIATANQGSEATYESGFVIDKFPISRPNLTFSTLTVSNMSPEDSSIYLCSVQDSEAFFGQGTRLTVV
- binding result: recognises
